Bridges are numbered along the chain shown (N, C = ends). Where no end group is shown, it is not given here. [ ]: non-standard residue; d: D form. MPEG5000 = polyethyleneglycol of 5000 molecular weight, attached to the N-terminal Cys; dPen = CC(C)(S)[C@@H](N)C(=O)O
B1: SEQ ID NO 3 (peptide)
peptide: cyclo(EWLDVD)
modifications: not fully specified (residue 3)
notes: Head-to-tail cyclic lactam; also called Glu-Trp-Leu-Asp-Val-Asp
B2: SEQ ID NO 41 (peptide)
peptide: MPEG5000-CWLDVC-OH
modifications: disulfide 1-6
notes: Disulfide cyclic peptide; also called MPEG5000-Cys-Trp-Leu-Asp-Val-Cys-acid
B3: SEQ ID NO 40 (peptide)
peptide: CPEWLDVC-OH
modifications: disulfide 1-8; N-terminus assumed
SMILES: CC(C)C[C@@H]1NC(=O)[C@H](Cc2c[nH]c3ccccc23)NC(=O)[C@H](CCC(=O)O)NC(=O)[C@@H]2CCCN2C(=O)[C@@H](N)CSSC[C@@H](C(=O)O)NC(=O)[C@H](C(C)C)NC(=O)[C@H](CC(=O)O)NC1=O
notes: Disulfide cyclic peptide
B4: SEQ ID NO 31 (peptide)
peptide: CWLDVC-OH
modifications: disulfide 1-6; N-terminus assumed
SMILES: CC(C)C[C@@H]1NC(=O)[C@H](Cc2c[nH]c3ccccc23)NC(=O)[C@@H](N)CSSC[C@@H](C(=O)O)NC(=O)[C@H](C(C)C)NC(=O)[C@H](CC(=O)O)NC1=O
notes: Disulfide cyclic peptide; also called Cys-Trp-Leu-Asp-Val-Cys-acid
B5: SEQ ID NO 17 (peptide)
peptide: C[dW]LDVC-OH
modifications: disulfide 1-6; N-terminus assumed
SMILES: CC(C)C[C@@H]1NC(=O)[C@@H](Cc2c[nH]c3ccccc23)NC(=O)[C@@H](N)CSSC[C@@H](C(=O)O)NC(=O)[C@H](C(C)C)NC(=O)[C@H](CC(=O)O)NC1=O
notes: Disulfide cyclic peptide; also called Cys-dTrp-Leu-Asp-Val-Cys-acid
B6: SEQ ID NO 36 (peptide)
peptide: CEWLDYC-OH
modifications: disulfide 1-7; N-terminus assumed
SMILES: CC(C)C[C@@H]1NC(=O)[C@H](Cc2c[nH]c3ccccc23)NC(=O)[C@H](CCC(=O)O)NC(=O)[C@@H](N)CSSC[C@@H](C(=O)O)NC(=O)[C@H](Cc2ccc(O)cc2)NC(=O)[C@H](CC(=O)O)NC1=O
notes: Disulfide cyclic peptide; also called Cys-Glu-Trp-Leu-Asp-Tyr-Cys-acid
B7: SEQ ID NO 33 (peptide)
peptide: CEWLDVC-NH2
modifications: disulfide 1-7; N-terminus assumed
SMILES: CC(C)C[C@@H]1NC(=O)[C@H](Cc2c[nH]c3ccccc23)NC(=O)[C@H](CCC(=O)O)NC(=O)[C@@H](N)CSSC[C@@H](C(N)=O)NC(=O)[C@H](C(C)C)NC(=O)[C@H](CC(=O)O)NC1=O
notes: Disulfide cyclic peptide; also called Cys-Glu-Trp-Leu-Asp-Val-Cys-amide
B8: SEQ ID NO 37 (peptide)
peptide: CSFLDYC-OH
modifications: disulfide 1-7; N-terminus assumed
SMILES: CC(C)C[C@@H]1NC(=O)[C@H](Cc2ccccc2)NC(=O)[C@H](CO)NC(=O)[C@@H](N)CSSC[C@@H](C(=O)O)NC(=O)[C@H](Cc2ccc(O)cc2)NC(=O)[C@H](CC(=O)O)NC1=O
notes: Disulfide cyclic peptide; also called Cys-Ser-Phe-Leu-Asp-Tyr-Cys-acid
B9: SEQ ID NO 38 (peptide)
peptide: CEFLDYC-OH
modifications: disulfide 1-7; N-terminus assumed
SMILES: CC(C)C[C@@H]1NC(=O)[C@H](Cc2ccccc2)NC(=O)[C@H](CCC(=O)O)NC(=O)[C@@H](N)CSSC[C@@H](C(=O)O)NC(=O)[C@H](Cc2ccc(O)cc2)NC(=O)[C@H](CC(=O)O)NC1=O
notes: Disulfide cyclic peptide; also called Cys-Glu-Phe-Leu-Asp-Tyr-Cys-acid
B10: SEQ ID NO 34 (peptide)
peptide: CEWLDVC-OH
modifications: disulfide 1-7; N-terminus assumed
SMILES: CC(C)C[C@@H]1NC(=O)[C@H](Cc2c[nH]c3ccccc23)NC(=O)[C@H](CCC(=O)O)NC(=O)[C@@H](N)CSSC[C@@H](C(=O)O)NC(=O)[C@H](C(C)C)NC(=O)[C@H](CC(=O)O)NC1=O
notes: Disulfide cyclic peptide; also called Cys-Glu-Trp-Leu-Asp-Val-Cys-acid
B11: SEQ ID NO 18 (peptide)
peptide: Ac-CWLDVC-OH
modifications: disulfide 1-6
SMILES: CC(=O)N[C@H]1CSSC[C@@H](C(=O)O)NC(=O)[C@H](C(C)C)NC(=O)[C@H](CC(=O)O)NC(=O)[C@H](CC(C)C)NC(=O)[C@H](Cc2c[nH]c3ccccc23)NC1=O
notes: Disulfide cyclic peptide; also called Ac-Cys-Trp-Leu-Asp-Val-Cys-acid
B12: SEQ ID NO 19 (peptide)
peptide: CYLDVC-OH
modifications: disulfide 1-6; N-terminus assumed
SMILES: CC(C)C[C@@H]1NC(=O)[C@H](Cc2ccc(O)cc2)NC(=O)[C@@H](N)CSSC[C@@H](C(=O)O)NC(=O)[C@H](C(C)C)NC(=O)[C@H](CC(=O)O)NC1=O
notes: Disulfide cyclic peptide; also called Cys-Tyr-Leu-Asp-Val-Cys-acid
B13: SEQ ID NO 21 (peptide)
peptide: CFLDVC-OH
modifications: disulfide 1-6; N-terminus assumed
SMILES: CC(C)C[C@@H]1NC(=O)[C@H](Cc2ccccc2)NC(=O)[C@@H](N)CSSC[C@@H](C(=O)O)NC(=O)[C@H](C(C)C)NC(=O)[C@H](CC(=O)O)NC1=O
notes: Disulfide cyclic peptide; also called Cys-Phe-Leu-Asp-Val-Cys-acid
B14: SEQ ID NO 29 (peptide)
peptide: CWLDYC-OH
modifications: disulfide 1-6; N-terminus assumed
SMILES: CC(C)C[C@@H]1NC(=O)[C@H](Cc2c[nH]c3ccccc23)NC(=O)[C@@H](N)CSSC[C@@H](C(=O)O)NC(=O)[C@H](Cc2ccc(O)cc2)NC(=O)[C@H](CC(=O)O)NC1=O
notes: Disulfide cyclic peptide; also called Cys-Trp-Leu-Asp-Tyr-Cys-acid
B15: SEQ ID NO 26 (peptide)
peptide: CWKDVC-OH
modifications: disulfide 1-6; N-terminus assumed
SMILES: CC(C)[C@@H]1NC(=O)[C@H](CC(=O)O)NC(=O)[C@H](CCCCN)NC(=O)[C@H](Cc2c[nH]c3ccccc23)NC(=O)[C@@H](N)CSSC[C@@H](C(=O)O)NC1=O
notes: Disulfide cyclic peptide; also called Cys-Trp-Lys-Asp-Val-Cys-acid
B16: SEQ ID NO 23 (peptide)
peptide: CWIDVC-OH
modifications: disulfide 1-6; N-terminus assumed
SMILES: CC[C@H](C)[C@@H]1NC(=O)[C@H](Cc2c[nH]c3ccccc23)NC(=O)[C@@H](N)CSSC[C@@H](C(=O)O)NC(=O)[C@H](C(C)C)NC(=O)[C@H](CC(=O)O)NC1=O
notes: Disulfide cyclic peptide; also called Cys-Trp-Ile-Asp-Val-Cys-acid
B17: SEQ ID NO 25 (peptide)
peptide: CWVDVC-OH
modifications: disulfide 1-6; N-terminus assumed
SMILES: CC(C)[C@@H]1NC(=O)[C@H](CC(=O)O)NC(=O)[C@H](C(C)C)NC(=O)[C@H](Cc2c[nH]c3ccccc23)NC(=O)[C@@H](N)CSSC[C@@H](C(=O)O)NC1=O
notes: Disulfide cyclic peptide; also called Cys-Trp-Val-Asp-Val-Cys-acid
B18: SEQ ID NO 28 (peptide)
peptide: CWLDLC-OH
modifications: disulfide 1-6; N-terminus assumed
SMILES: CC(C)C[C@@H]1NC(=O)[C@H](CC(=O)O)NC(=O)[C@H](CC(C)C)NC(=O)[C@H](Cc2c[nH]c3ccccc23)NC(=O)[C@@H](N)CSSC[C@@H](C(=O)O)NC1=O
notes: Disulfide cyclic peptide; also called Cys-Trp-Leu-Asp-Leu-Cys-acid
B19: SEQ ID NO 20 (peptide)
peptide: CWLDFC-OH
modifications: disulfide 1-6; N-terminus assumed
SMILES: CC(C)C[C@@H]1NC(=O)[C@H](Cc2c[nH]c3ccccc23)NC(=O)[C@@H](N)CSSC[C@@H](C(=O)O)NC(=O)[C@H](Cc2ccccc2)NC(=O)[C@H](CC(=O)O)NC1=O
notes: Disulfide cyclic peptide; also called Cys-Trp-Leu-Asp-Phe-Cys-acid
B20: SEQ ID NO 22 (peptide)
peptide: CWLDWC-OH
modifications: disulfide 1-6; N-terminus assumed
SMILES: CC(C)C[C@@H]1NC(=O)[C@H](Cc2c[nH]c3ccccc23)NC(=O)[C@@H](N)CSSC[C@@H](C(=O)O)NC(=O)[C@H](Cc2c[nH]c3ccccc23)NC(=O)[C@H](CC(=O)O)NC1=O
notes: Disulfide cyclic peptide; also called Cys-Trp-Leu-Asp-Trp-Cys-acid
B21: SEQ ID NO 24 (peptide)
peptide: CWMDVC-OH
modifications: disulfide 1-6; N-terminus assumed
SMILES: CSCC[C@@H]1NC(=O)[C@H](Cc2c[nH]c3ccccc23)NC(=O)[C@@H](N)CSSC[C@@H](C(=O)O)NC(=O)[C@H](C(C)C)NC(=O)[C@H](CC(=O)O)NC1=O
notes: Disulfide cyclic peptide; also called Cys-Trp-Met-Asp-Val-Cys-acid
B22: SEQ ID NO 32 (peptide)
peptide: [dC]WLDVC-OH
modifications: disulfide 1-6; N-terminus assumed
SMILES: CC(C)C[C@@H]1NC(=O)[C@H](Cc2c[nH]c3ccccc23)NC(=O)[C@H](N)CSSC[C@@H](C(=O)O)NC(=O)[C@H](C(C)C)NC(=O)[C@H](CC(=O)O)NC1=O
notes: Disulfide cyclic peptide; also called dCys-Trp-Leu-Asp-Val-Cys-acid
B23: SEQ ID NO 16 (peptide)
peptide: CSWLDVC
modifications: disulfide 1-7
notes: Disulfide cyclic peptide; also called Cys-Ser-Trp-Leu-Asp-Val-Cys
B24: SEQ ID NO 42 (peptide)
peptide: [dPen]WLDVC-OH
modifications: disulfide 1-6; N-terminus assumed
SMILES: CC(C)C[C@@H]1NC(=O)[C@H](Cc2c[nH]c3ccccc23)NC(=O)[C@H](N)C(C)(C)SSC[C@@H](C(=O)O)NC(=O)[C@H](C(C)C)NC(=O)[C@H](CC(=O)O)NC1=O
notes: Disulfide cyclic peptide; also called dPen-Trp-Leu-Asp-Val-Cys-acid
B25: SEQ ID NO 35 (peptide)
peptide: [dC]EWLDVC-OH
modifications: disulfide 1-7; N-terminus assumed
SMILES: CC(C)C[C@@H]1NC(=O)[C@H](Cc2c[nH]c3ccccc23)NC(=O)[C@H](CCC(=O)O)NC(=O)[C@H](N)CSSC[C@@H](C(=O)O)NC(=O)[C@H](C(C)C)NC(=O)[C@H](CC(=O)O)NC1=O
notes: Disulfide cyclic peptide; also called dCys-Glu-Trp-Leu-Asp-Val-Cys-acid

Target: T1, integrin α4β1 (human, UniProt P13612 34-1032; P05556 21-798)
T1 construct: whole, on cells; also called VLA-4; very late antigen-4
Assay: inhibition of HL-60 cell (α4β1) binding to VCAM-IgG coated beads, fluorimetry
Method: The media was collected and active protein was purified by immunoprecipitation using Dynal magnetic polystyrene beads coated with goat anti-mouse IgG. Following immunoprecipitation, the beads bound cells that expressed the integrin α_4β_1 such as Ramos and HL-60.
HL-60 cells were fluorescently labeled with Calcein AM C-3099 (Molecular Probes) and resuspended in 1 ml of binding buffer (Hank's balanced salt solution, pH 7.4, 1.0 mM CaCl_2, 1.0 mM MgCl_2). The beads (10 µl, 4×10^6 beads/ml) were placed in wells of a 96-well microtiter dish with 10 µl of peptide at various concentrations. The beads were incubated with 10 µl of labeled cells (10^7 cells/ml) for 10 min at room temperature. Following immobilization of the beads onto the plastic with a magnet, unbound cells were removed by washing three times with binding buffer. The remaining bound cells were lysed in 50 mM Tris, pH 7.4, 5.0 mM EDTA, 1.0% NP-40 and quantitated by fluorimetry using a Millipore Cytofluor 2350 fluorimeter. Dose response curves were calculated and IC$50$ values determined. Alternatively, the percent adhesion was determined at a single peptide concentration for comparison among peptides.

T1 sequence (P13612 34-1032, chain 1 of 2): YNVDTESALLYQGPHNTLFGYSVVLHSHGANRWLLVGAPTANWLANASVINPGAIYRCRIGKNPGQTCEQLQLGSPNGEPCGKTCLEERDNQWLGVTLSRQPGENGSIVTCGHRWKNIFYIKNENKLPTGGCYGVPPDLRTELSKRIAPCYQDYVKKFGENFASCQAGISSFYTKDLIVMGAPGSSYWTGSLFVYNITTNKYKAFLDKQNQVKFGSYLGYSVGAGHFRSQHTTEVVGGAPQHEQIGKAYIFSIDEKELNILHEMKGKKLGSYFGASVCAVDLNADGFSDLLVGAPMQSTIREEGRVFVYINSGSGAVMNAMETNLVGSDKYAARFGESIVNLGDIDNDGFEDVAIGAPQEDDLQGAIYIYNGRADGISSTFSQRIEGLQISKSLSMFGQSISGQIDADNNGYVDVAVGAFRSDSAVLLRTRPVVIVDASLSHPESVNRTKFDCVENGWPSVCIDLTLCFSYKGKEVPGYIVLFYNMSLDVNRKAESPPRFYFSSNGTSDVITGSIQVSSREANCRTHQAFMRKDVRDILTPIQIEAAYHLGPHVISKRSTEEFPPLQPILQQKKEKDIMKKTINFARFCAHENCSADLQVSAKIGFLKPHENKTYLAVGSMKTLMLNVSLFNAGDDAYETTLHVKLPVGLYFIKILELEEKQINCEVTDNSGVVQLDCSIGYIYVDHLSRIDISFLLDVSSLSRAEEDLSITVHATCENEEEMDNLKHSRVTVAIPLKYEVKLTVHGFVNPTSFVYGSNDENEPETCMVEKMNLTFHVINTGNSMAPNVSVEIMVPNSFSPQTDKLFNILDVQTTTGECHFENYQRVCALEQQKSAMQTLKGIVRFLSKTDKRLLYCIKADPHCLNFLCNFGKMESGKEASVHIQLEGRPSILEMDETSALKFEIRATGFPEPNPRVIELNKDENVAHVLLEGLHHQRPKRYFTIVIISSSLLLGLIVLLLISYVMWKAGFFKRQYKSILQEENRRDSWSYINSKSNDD
T1 sequence (P05556 21-798, chain 2 of 2): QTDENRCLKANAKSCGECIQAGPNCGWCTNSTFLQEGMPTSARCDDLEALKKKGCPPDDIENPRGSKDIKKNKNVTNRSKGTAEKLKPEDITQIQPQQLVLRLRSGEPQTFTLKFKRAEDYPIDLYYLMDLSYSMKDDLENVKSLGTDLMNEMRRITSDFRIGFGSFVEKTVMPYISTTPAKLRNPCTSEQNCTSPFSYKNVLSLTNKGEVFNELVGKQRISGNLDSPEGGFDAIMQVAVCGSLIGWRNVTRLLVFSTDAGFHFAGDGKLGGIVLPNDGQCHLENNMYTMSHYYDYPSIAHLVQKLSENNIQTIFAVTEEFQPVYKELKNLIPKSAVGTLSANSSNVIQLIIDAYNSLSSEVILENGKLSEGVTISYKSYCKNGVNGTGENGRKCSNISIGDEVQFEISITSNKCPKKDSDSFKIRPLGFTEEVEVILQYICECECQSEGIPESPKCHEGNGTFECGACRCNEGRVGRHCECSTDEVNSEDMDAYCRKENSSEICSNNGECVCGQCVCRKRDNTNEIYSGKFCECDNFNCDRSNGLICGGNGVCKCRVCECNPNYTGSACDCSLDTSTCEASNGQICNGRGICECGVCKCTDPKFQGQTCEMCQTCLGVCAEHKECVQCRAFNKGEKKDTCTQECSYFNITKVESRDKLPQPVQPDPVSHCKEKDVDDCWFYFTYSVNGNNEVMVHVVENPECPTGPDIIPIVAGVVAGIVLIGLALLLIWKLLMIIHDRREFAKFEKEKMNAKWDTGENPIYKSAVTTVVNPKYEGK

Peptide concentration that significantly inhibits binding, < 10 µM:
B1
B2
B3
B4
B5
B6
B7
B8
B9
B10
B11
B12
B13
B14
B15
B16
B17
B18
B19
B20
B21
B22
B23
B24
B25

Source: US6713604 (TEXAS BIOTECHNOLOGY, dated 2004)
